Peptide text beside a SMILES is read from it. * marks the point of attachment. Cbz = O=C(OCc1ccccc1)*; CH2F = FC*
Key:
[1] = system: Fluc-labeled 4T1 cells; test: In vivo tumor growth from a small number of subcutaneously injected Fluc-labeled 4T1 cells; parameters: species or system mice; settings: about 1000 subcutaneously injected Fluc-labeled 4T1 cells
Procedure: Growth of Fluc-labeled tumor cells in vivo was followed through non-invasive bioluminescence imaging using the IVIS200 instrument (Caliper Life Sciences, Hopkinton, Mass.). Mice to be imaged were injected with 150 mg/kg of D-luciferin (obtained from Caliper Life Sciences) intraperitoneally in 200 μl of PBS and then anesthetized with continuous flow of isofluorane. Imaging of the mice was carried out 10 minutes later. The time between injection and imaging was kept constant among different batches of mice.
Different approaches were used to establish tumor growth than traditionally adopted by other studies. In most of the studies, only a very small number of Fluc-labeled tumor cells (500-1000 cells each) were injected either alone or together with other unlabeled cells (either tumor cells or fibroblast cells) that were either irradiated or un-irradiated. Tumor growth in these cells was monitored through the quantification of bioluminescence signals emitted from labeled tumor cells by using the IVIS200 instrument following manufacturer's instructions.
As PGE2 had been implicated as a regulator of tumor growth, its effect on in vivo tumor growth was evaluated from a small number of Fluc-labeled 4T1 cells.

[2] = system: 4T1Fluc cells; test: Growth of Fluc-labeled tumor cells seeded onto dying feeder cells killed by cytotoxic treatment; format: cell-based, mouse; settings: dying feeder cells killed by a treatment other than radiation
[3] = system: 4T1Fluc cells; test: Growth of 4T1Fluc tumor cells plated with lethally irradiated NIH3T3 cells, bioluminescence imaging; format: cell-based, mouse; settings: about 1000 4T1Fluc cells plated with lethally irradiated NIH3T3 cells plus inhibitor (FIG. 4)
Procedure: FIG. 4 is a graph showing the effect of a caspase inhibitor z-VAD-fmk on 4T1Fluc tumor cell growth when plated with lethally irradiated NIH3T3 cells. About 1000 4T1Fluc cells were plated either alone, with non-irradiated NIH3T3 cells, or with lethally irradiated NIH3T3 cells plus a pan-caspase inhibitor z-VAD-fmk.
For imaging luciferase, the IVIS200 instrument from Caliper Life Sciences (Hopkinton, Mass.) was used. For tissue cultured cells, luciferase signal was imaged by adding PBS or colorless OptiMEM medium (Invitrogen, Carlsbad, Calif.) with D-luciferin (Caliper Life Sciences, Hopkinton, Mass.) at a concentration of 0.15 mg/ml. The cells were imaged at a set time point (e.g., 10 minutes) after the administration of D-luciferin. This allowed the signals from different samples to be compared. After images were taken, the manufacturer supplied software was used to process the images for quantitative data.
In order to rule out the possibility that caspase 3 mediates its growth-promoting function through a non-proteolytic mechanism, experiments were conducted using a pan-caspase inhibitor z-VAD-fmk to treat irradiated cells. […] A further, more definitive confirmation came from experiments where a dominant-negative version of caspase 3 was stably transduced into 4T1 cells. The dominant-negative caspase 3 (DN-casp3) differs with wild type caspase 3 in only one amino acid (C163A). […]

[4] = system: IMR90 cells; test: iPSC induction from IMR90 fibroblasts transduced with transcription factor cocktails; format: cell-based, human; settings: for increase in frequency of OSNL-induced iPSC formation: IMR90 cells; for suppression / reduction in the frequency of iPSC induction: IMR90 cells stably transduced with the agent
Source text: The caspase reporters were transduced into human IMR90 fibroblasts via recombinant lentivirus vectors. After puromycin selection to ensure stable integration of the reporters, the iPSC reprogramming process was initiated by infecting caspase reporter-transduced IMR90 cells with recombinant lentivirus vectors carrying 4 transcription factors (Oct-4, Sox2, Nanog, and Lin28, or OSNL in abbreviation) that are known to induce iPSC formation. To avoid the use of myc, which is known to induce caspase activation and might confound the results, the OSNL protocol was chosen because it was shown not to be essential for iPSC induction.
In order to determine whether the observed caspases 3 and 8 activation had any functional relevance in iPSC induction, down-regulation of caspase activities in OSNL-transduced cells was attempted. In the initial experiment, CrmA was we stably transduced through lentiviral vectors, a cow pox virus protein known to suppress caspases 1 and 8 activities, into IMR90 cells. […] This was a very surprising result because logically one would expect that inhibiting caspase activation would lead to increased iPSC generation because of reduced cell death.
Because CrmA inhibits both caspases 1 and 8, more specific approaches were used to determine which caspase was involved. First, a siRNA-based knockdown approach was used. In this approach, lentiviral vectors encoding either caspase 1- or caspase 8-targeted shRNA was used to infect IMR90 cells. After selecting for cells with stable shRNA knockdown (as verified by western blot analysis), they were infected with OSNL lentivector cocktail.
To provide further proof that the cleavage activities of caspases 3 and 8 are necessary for iPSC formation, lentiviral vectors encoding dominant-negative forms of caspases 3 and 8 were constructed. The dominant negative form of human caspase 8 gene (casp8-DN) encodes a virtually identical protein as the wild type except a single amino acid change (i.e. C360A), which disables its catalytic proteolytic function. This dominant negative form was cloned into a recombinant lentiviral vector. Similarly, the dominant negative form of caspase 3 (Casp3-DN), which contains a single mutation (C163A) that disables its proteolytic function, was also cloned into a lentiviral vector.
When IMR90 cells stably transduced with a lentiviral vector encoding casp8-DN were infected with the OSNL lentiviral cocktail, no iPSC induction process was observed.

Molecule: CCCCC[C@H](O)/C=C/[C@H]1[C@H](O)CC(=O)[C@@H]1C/C=C\CCCC(=O)O [PGE2, prostaglandin E2]
- effect on in vivo tumor growth [1]: significantly stimulate tumor growth

Molecule: COc1cc([C@@H]2c3cc4c(cc3[C@@H](O[C@@H]3O[C@@H]5CO[C@@H](C)O[C@H]5[C@H](O)[C@H]3O)[C@H]3COC(=O)[C@H]23)OCO4)cc(OC)c1O [etoposide]
- growth-enhancing function conferred on dying cells by the cytotoxic treatment [2]: engender significant growth-enhancing functions to dying cells

Molecule: COC(=O)C[C@H](NC(=O)[C@H](C)NC(=O)[C@@H](NC(=O)OCc1ccccc1)C(C)C)C(=O)CF [z-VAD-fmk] (Cbz-Val-Ala-Asp(OMe)-CH2F)
- effect on growth-promoting properties of irradiated cells towards 4T1Fluc tumor cell growth [3]: eliminated the growth-promoting properties of irradiated cells

Molecule: E7: human papilloma virus type 16 E7 protein, known to inhibit Rb function, co-transduced with OSNL
- increase in frequency of OSNL-induced iPSC formation [4]: ~5 fold

B1: casp8-DN: dominant negative form of human caspase 8 (C360A), lentiviral vector encoded (protein, UniProt Q14790 1-479, looked up, variant C360A)
chain: MDFSRNLYDIGEQLDSEDLASLKFLSLDYIPQRKQEPIKDALMLFQRLQEKRMLEESNLSFLKELLFRINRLDLLITYLNTRKEEMERELQTPGRAQISAYRVMLYQISEEVSRSELRSFKFLLQEEISKCKLDDDMNLLDIFIEMEKRVILGEGKLDILKRVCAQINKSLLKIINDYEEFSKERSSSLEGSPDEFSNGEELCGVMTISDSPREQDSESQTLDKVYQMKSKPRGYCLIINNHNFAKAREKVPKLHSIRDRNGTHLDAGALTTTFEELHFEIKPHDDCTVEQIYEILKIYQLMDHSNMDCFICCILSHGDKGIIYGTDGQEAPIYELTSQFTGLKCPSLAGKPKVFFIQAAQGDNYQKGIPVETDSEEQPYLEMDLSSPQTRYIPDEADFLLGMATVNNCVSYRNPAEGTWYIQSLCQSLRERCPRGDDILTILTEVNYEVSNKDDKKNMGKQMPQPTFTLRKKLVFPSD
modifications: full-length lentiviral vector encoded
notes: dominant negative form of human caspase 8 (C360A), lentiviral vector encoded
- iPSC clones observed ([4]; OSNL lentiviral cocktail, after 25 days of culture, wild type IMR90 around 550 clones/5×10^5 cells): No iPSC clones were observed
- suppression of iPSC induction ([4]; transduced together with OSKM): over 95%

B2: dominant negative caspase 3 (C163A): dominant negative form of caspase 3 with single mutation C163A, lentiviral vector encoded (protein, UniProt P42574 1-277, looked up, variant C163A)
chain: MENTENSVDSKSIKNLEPKIIHGSESMDSGISLDNSYKMDYPEMGLCIIINNKNFHKSTGMTSRSGTDVDAANLRETFRNLKYEVRNKNDLTREEIVELMRDVSKEDHSKRSSFVCVLLSHGEEGIIFGTNGPVDLKKITNFFRGDRCRSLTGKPKLFIIQAARGTELDCGIETDSGVDDDMACHKIPVEADFLYAYSTAPGYYSWRNSKDGSWFIQSLCAMLKQYADKLEFMHILTRVNRKVATEFESFSFDATFHAKKQIPCIVSMLTKELYFYH
modifications: full-length lentiviral vector encoded
notes: dominant negative form of caspase 3 with single mutation C163A, lentiviral vector encoded
- suppression / reduction in the frequency of iPSC induction ([4]; OSNL lentiviral cocktail): about 80%

B3: Rb: human Rb gene over-expressed from a lentiviral expression vector (protein, UniProt P06400 2-928, looked up)
Retinoblastoma-associated …: PPKTPRKTAATAAAAAAEPPAPPPPPPPEEDPEQDSGPEDLPLVRLEFEETEEPDFTALCQKLKIPDHVRERAWLTWEKVSSVDGVLGGYIQKKKELWGICIFIAAVDLDEMSFTFTELQKNIEISVHKFFNLLKEIDTSTKVDNAMSRLLKKYDVLFALFSKLERTCELIYLTQPSSSISTEINSALVLKVSWITFLLAKGEVLQMEDDLVISFQLMLCVLDYFIKLSPPMLLKEPYKTAVIPINGSPRTPRRGQNRSARIAKQLENDTRIIEVLCKEHECNIDEVKNVYFKNFIPFMNSLGLVTSNGLPEVENLSKRYEEIYLKNKDLDARLFLDHDKTLQTDSIDSFETQRTPRKSNLDEEVNVIPPHTPVRTVMNTIQQLMMILNSASDQPSENLISYFNNCTVNPKESILKRVKDIGYIFKEKFAKAVGQGCVEIGSQRYKLGVRLYYRVMESMLKSEEERLSIQNFSKLLNDNIFHMSLLACALEVVMATYSRSTSQNLDSGTDLSFPWILNVLNLKAFDFYKVIESFIKAEGNLTREMIKHLERCEHRIMESLAWLSDSPLFDLIKQSKDREGPTDHLESACPLNLPLQNNHTAADMYLSPVRSPKKKGSTTRVNSTANAETQATSAFQTQKPLKSTSLSLFYKKVYRLAYLRLNTLCERLLSEHPELEHIIWTLFQHTLQNEYELMRDRHLDQIMMCSMYGICKVKNIDLKFKIIVTAYKDLPHAVQETFKRVLIKEEEYDSIIVFYNSVFMQRLKTNILQYASTRPPTLSPIPHIPRSPYKFPSSPLRIPGGNIYISPLKSPYKISEGLPTPTKMTPRSRILVSIGESFGTSEKFQKINQMVCNSDRVLKRSAEGSNPPKPLKKLRFDIEGSDEADGSKHLPGESKFQQKLAEMTSTRTRMQKQKMNDSMDTSNKEEK
modifications: lentiviral expression
notes: human Rb gene over-expressed from a lentiviral expression vector
- suppression / reduction in the frequency of iPSC induction ([4]; OSNL lentiviral cocktail): about 50%

B4: shRNA targeted to Rb: lentiviral vector-encoded shRNA against human Rb, Open Biosystems (nucleic acid)
DNA: TGCTGTTGACAGTGAGCGCGGATATAGGATACATCTTTAATAGTGAAGCCACAGATGTATTAAAGATGTATCCTATATCCTTGCCTACTGCCTCGGA
modifications: the letters are possibly those of the target site
notes: lentiviral vector-encoded shRNA against human Rb, Open Biosystems
- increase in frequency of OSNL-induced iPSC formation [4]: almost doubled

B5: shRNA targeted to caspase 1: lentiviral vector-encoded shRNA against human caspase 1, Open Biosystems (nucleic acid)
DNA: TGCTGTTGACAGTGAGCGCGCAATCTTTAACATGTTGAATTAGTGAAGCCACAGATGTAATTCAACATGTTAAAGATTGCATGCCTACTGCCTCGGA
modifications: the letters are possibly those of the target site
notes: lentiviral vector-encoded shRNA against human caspase 1, Open Biosystems
- suppression / reduction in the frequency of iPSC induction ([4]; OSNL lentiviral cocktail): no significant effect

From US20110165143A1, “MODULATION OF CASPASES AND THERAPEUTICAL APPLICATIONS” (The Regents of the University of Colorado, a body corporate, priority 2010, published 2011)
